Data as given in patent publication US20200323973A1 (INSTITUTE FOR SYSTEMS BIOLOGY, published 2020).
Bridge positions count the residues as written; N and C are the ends. Ends that are not written are not given here. * marks the point of attachment. Biotin = O=C1N[C@H]2[C@H](CS[C@H]2CCCCC(=O)*)N1

Assays:
[1] = biological target: recombinant full-length MrkA protein with an N-terminal 6xHis-SUMO-tag (MyBiosource, MBS1248970) (Klebsiella pneumoniae) (UniProt P12267); assay: sandwich ELISA 2, 25 nM MrkA; PCC immobilised
[2] = biological target: recombinant full-length MrkA protein with an N-terminal 6xHis-SUMO-tag (MyBiosource, MBS1248970) (Klebsiella pneumoniae) (UniProt P12267); assay: sandwich ELISA 6, 25 nM MrkA; reference compound, ratio to itself
[3] = biological target: recombinant full-length MrkA protein with an N-terminal 6xHis-SUMO-tag (MyBiosource, MBS1248970) (Klebsiella pneumoniae) (UniProt P12267); assay: sandwich ELISA 4, 100 nM MrkA; reference compound, ratio to itself
[4] = biological target: recombinant full-length MrkA protein with an N-terminal 6xHis-SUMO-tag (MyBiosource, MBS1248970) (Klebsiella pneumoniae) (UniProt P12267); assay: sandwich ELISA 5, 25 nM MrkA; reference compound, ratio to itself
[5] = biological target: recombinant full-length MrkA protein with an N-terminal 6xHis-SUMO-tag (MyBiosource, MBS1248970) (Klebsiella pneumoniae) (UniProt P12267); assay: sandwich ELISA: biotinylated PCC on NeutrAvidin plate, His-SUMO-MrkA titrated, anti-His detection (FIG. 3A)
[6] = biological target: recombinant full-length MrkA protein with an N-terminal 6xHis-SUMO-tag (MyBiosource, MBS1248970) (Klebsiella pneumoniae) (UniProt P12267); assay: sandwich ELISA 3, 50 nM MrkA; reference compound, ratio to itself
[7] = biological target: recombinant full-length MrkA protein with an N-terminal 6xHis-SUMO-tag (MyBiosource, MBS1248970) (Klebsiella pneumoniae) (UniProt P12267); assay: ELISA with the PCC immobilised, full-length recombinant MrkA (FIG. 3A)
[8] = biological target: recombinant full-length MrkA protein with an N-terminal 6xHis-SUMO-tag (MyBiosource, MBS1248970) (Klebsiella pneumoniae) (UniProt P12267); assay: sandwich ELISA 2, 25 nM MrkA; reference compound, ratio to itself
[9] = biological target: recombinant full-length MrkA protein with an N-terminal 6xHis-SUMO-tag (MyBiosource, MBS1248970) (Klebsiella pneumoniae) (UniProt P12267); assay: sandwich ELISA 1, [MrkA] N/A; reference compound, ratio to itself
[10] = biological target: recombinant full-length MrkA protein with an N-terminal 6xHis-SUMO-tag (MyBiosource, MBS1248970) (Klebsiella pneumoniae) (UniProt P12267); assay: sandwich ELISA 3, 50 nM MrkA; PCC immobilised
[11] = biological target: recombinant full-length MrkA protein with an N-terminal 6xHis-SUMO-tag (MyBiosource, MBS1248970) (Klebsiella pneumoniae) (UniProt P12267); assay: sandwich ELISA 6, 25 nM MrkA; PCC immobilised
[12] = biological target: recombinant full-length MrkA protein with an N-terminal 6xHis-SUMO-tag (MyBiosource, MBS1248970) (Klebsiella pneumoniae) (UniProt P12267); assay: ELISA with the PCC immobilised, full-length recombinant MrkA
[13] = biological target: recombinant full-length MrkA protein with an N-terminal 6xHis-SUMO-tag (MyBiosource, MBS1248970) (Klebsiella pneumoniae) (UniProt P12267); assay: sandwich ELISA 4, 100 nM MrkA; PCC immobilised
[14] = biological target: T1, MrkA on Klebsiella pneumoniae cells (assembled into type 3 fimbriae) (Klebsiella pneumoniae, UniProt P12267 23-202); assay: whole-cell ELISA on two strains of MrkA-expressing K. pneumoniae (FIG. 5C); biotinylated PCC, SAv-HRP
T1 construct: whole, on cells; One molecule is used for all three strains; The strain is named under assay; MrkA oligomerises in the fimbriae and the number of copies is not fixed; also called MrkA-expressing K. pneumoniae cells; wild type KPPR1 (ATCC 43816)
T1 sequence: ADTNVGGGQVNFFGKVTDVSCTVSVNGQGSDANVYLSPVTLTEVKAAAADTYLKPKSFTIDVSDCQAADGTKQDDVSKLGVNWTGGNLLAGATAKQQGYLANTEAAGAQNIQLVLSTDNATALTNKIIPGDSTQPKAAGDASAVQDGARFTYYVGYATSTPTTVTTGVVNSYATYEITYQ

[15] = biological target: T1, MrkA on Klebsiella pneumoniae cells …; assay: whole-cell ELISA, biotinylated PCC and SAv-HRP; KPPR1 (FIG. 5B); also two MrkA-expressing strains at 5 µM (FIG. 5C)
[16] = biological target: T1, MrkA on Klebsiella pneumoniae cells …; assay: whole-cell ELISA on wild type KPPR1 (ATCC 43816) grown in G-CAA; biotinylated PCC, SAv-HRP
[17] = biological target: T1, MrkA on Klebsiella pneumoniae cells …; assay: flow cytometry on K. pneumoniae BAA 2146, Alexafluor 488 anti-DNP detection
SynEp 1 (SEQ ID NO:38) = biological target: T2, SynEp 1 (SEQ ID NO:38) (Klebsiella pneumoniae, also: one residue replaced by azidolysine, position not given here); assay: sandwich ELISA: biotinylated SynEp immobilised, cy(LLFFF)-DNP titrated, anti-DNP detection; background biotin-PEG6 subtracted
T2 peptide: {Biotin-peg5}-FFGKVTDVSCTVSV

“biotinylated cy(LLFFA) (SEQ ID NO:11) (peptide)” gave a Relative affinity (ratio of ELISA signal to cy(LLFFF)) [1] of 0.04.

Work on “biotinylated cy(LLFFF) (SEQ ID NO:5) (peptide)” yielded a Relative affinity (ratio of ELISA signal to cy(LLFFF)) [2] of 1, a Relative affinity (ratio of ELISA signal to cy(LLFFF)) [3] of 1 and a Relative affinity (ratio of ELISA signal to cy(LLFFF)) [4] of 1. It also gave an EC50 [5] of 50 nM, a Relative affinity (ratio of ELISA signal to cy(LLFFF)) [6] of 1 and an EC50 [7] of 230 nM. The Relative affinity (ratio of ELISA signal to cy(LLFFF)) [8] was 1 and the Relative affinity (ratio of ELISA signal to cy(LLFFF)) [9] was 1.

Work on cy(AAFFF) (SEQ ID NO:14) (peptide) yielded a Relative affinity (ratio of ELISA signal to cy(LLFFF)) [10] of 0.15.

Work on cy(ALFFF) (SEQ ID NO:7) (peptide) yielded a Relative affinity (ratio of ELISA signal to cy(LLFFF)) [1] of 0.53.

cy(DLFFF) (SEQ ID NO:12) (peptide) showed a Relative affinity (ratio of ELISA signal to cy(LLFFF)) [11] of 0.21.

cy(GVHRL) (SEQ ID NO:57) (peptide) showed an affinity (likely) [12] of 1 µM.

With cy(HLFFF) (SEQ ID NO:13) (peptide) the Relative affinity (ratio of ELISA signal to cy(LLFFF)) [11] was 0.81.

Work on cy(LAFFF) (SEQ ID NO:8) (peptide) yielded a Relative affinity (ratio of ELISA signal to cy(LLFFF)) [1] of 0.26.

cy(LLAFF) (SEQ ID NO:9) (peptide) gave a Relative affinity (ratio of ELISA signal to cy(LLFFF)) [1] of 0.59.

Molecule cy(LLFAF) (SEQ ID NO:10) (peptide) has a Relative affinity (ratio of ELISA signal to cy(LLFFF)) [1] of 0.1.

In the case of cy(TTFFF) (SEQ ID NO:35) (peptide), the Relative affinity (ratio of ELISA signal to cy(LLFFF)) [13] is reported as 0.04 and the affinity (likely) [12] is reported as 1 µM.

cy(YRHLG) (SEQ ID NO:56) (peptide) was tested, and the affinity (likely) [12] was 1 µM.

B1: biotinylated dummy ligand cy(HNGPT) (SEQ ID NO:18) (peptide)
peptide: HNGPT
modifications: macrocycle: propargylglycine before and azidolysine after the printed residues, joined by a triazole (cy); N-terminal biotin-peg5 tag
B1: no binding [14].

B2: biotinylated cy(LLFFF) (SEQ ID NO:5) (peptide)
peptide: LLFFF-azidolysine
modifications: triazole N-C; not fully specified (N-terminus); also: biotin-PEG tag by assay: Bio-Peg10-peg10, Bio-peg10 or Bio-peg5
notes: The biotin-PEG tags differ between assays; They are non-peptide, so one molecule is used and the tag is named under assay; also called cy(X-LLFFF-Z)
B2: binds [15].

B3: biotinylated cy(LLFFA) (SEQ ID NO:11) (peptide)
peptide: LLFFA-propargylglycine
modifications: triazole N-C; not fully specified (N-terminus); printed as cy(Z-LLFFA-X); also: biotin-PEG tag: Bio-peg10 or biotin-peg5 (whole-cell ELISA)
notes: also called Compound Number 6; cy(Z-LLFFA-X)
B3: no binding (tested: 5 µM down to 5 nM) [16].

B4: cy(LLFFF)-DNP (SEQ ID NO:5) (peptide)
peptide: LLFFF-azidolysine
modifications: triazole N-C; not fully specified (N-terminus); printed as cy(LLFFF)-DNP; also: linker peg5 or peg5-peg5 by assay
notes: also called DNP-conjugated cy(LLFFF); lead AR-PCC
B4: binds [17]; no binding (tested: 500 nM) (SynEp 1 (SEQ ID NO:38)).
